Test results published in US20150139990A1 (DAINIPPON SUMITOMO PHARMA, published 2015).
Positions count from the first letter of the chain named. In names and notes the source's numbering stands.

Legend:
human CD81 mutant H151R = molecular target: T1, human CD81 mutant H151R (human, UniProt P60033 1-236, limits assumed); test: ELISA
T1 construct: as m30; also called H151B; not shown: C-terminal V5 and 6xHis tags
T1 sequence: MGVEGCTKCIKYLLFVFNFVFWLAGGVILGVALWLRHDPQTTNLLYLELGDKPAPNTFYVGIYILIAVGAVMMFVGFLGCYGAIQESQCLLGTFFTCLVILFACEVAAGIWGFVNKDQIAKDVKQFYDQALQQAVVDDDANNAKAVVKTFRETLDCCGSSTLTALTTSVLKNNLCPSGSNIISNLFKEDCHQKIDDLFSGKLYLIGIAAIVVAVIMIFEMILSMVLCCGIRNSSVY

human CD81 mutant V135L = molecular target: T2, human CD81 mutant V135L (human, UniProt P60033 1-236, limits assumed); test: ELISA
T2 construct: as m30; not shown: C-terminal V5 and 6xHis tags
T2 sequence: T1 sequence with V135L, R151H

human CD81 mutant V169L = molecular target: T3, human CD81 mutant V169L (human, UniProt P60033 1-236, limits assumed); test: ELISA
T3 construct: as m30; not shown: C-terminal V5 and 6xHis tags
T3 sequence: T1 sequence with R151H, V169L

human CD81 mutant A164V = molecular target: T4, human CD81 mutant A164V (human, UniProt P60033 1-236, limits assumed); test: ELISA
T4 construct: as m30; not shown: C-terminal V5 and 6xHis tags
T4 sequence: T1 sequence with R151H, A164V

human CD81 mutant S168T = molecular target: T5, human CD81 mutant S168T (human, UniProt P60033 1-236, limits assumed); test: ELISA
T5 construct: as m30; not shown: C-terminal V5 and 6xHis tags
T5 sequence: T1 sequence with R151H, S168T

human CD81 mutant G158A = molecular target: T6, human CD81 mutant G158A (human, UniProt P60033 1-236, limits assumed); test: ELISA
T6 construct: as m30; not shown: C-terminal V5 and 6xHis tags
T6 sequence: T1 sequence with R151H, G158A

human CD81 mutant D137E = molecular target: T7, human CD81 mutant D137E (human, UniProt P60033 1-236, limits assumed); test: ELISA
T7 construct: as m30; not shown: C-terminal V5 and 6xHis tags
T7 sequence: T1 sequence with D137E, R151H

[1] = molecular target: T8, human CD81 on CD81-expressing cells (Jurkat E6.1, human PBMC, Ramos) (human, UniProt P60033 1-236); test: cell-based or functional assay
T8 sequence: T1 sequence with R151H

human CD81 mutant L165A = molecular target: T9, human CD81 mutant L165A (human, UniProt P60033 1-236, limits assumed); test: ELISA
T9 construct: as m30; not shown: C-terminal V5 and 6xHis tags
T9 sequence: T1 sequence with R151H, L165A

human CD81 mutant V169A = molecular target: T10, human CD81 mutant V169A (human, UniProt P60033 1-236, limits assumed); test: ELISA
T10 construct: as m30; not shown: C-terminal V5 and 6xHis tags
T10 sequence: T1 sequence with R151H, V169A

B1: 002-A07 IgG4 antibody (antibody)
heavy: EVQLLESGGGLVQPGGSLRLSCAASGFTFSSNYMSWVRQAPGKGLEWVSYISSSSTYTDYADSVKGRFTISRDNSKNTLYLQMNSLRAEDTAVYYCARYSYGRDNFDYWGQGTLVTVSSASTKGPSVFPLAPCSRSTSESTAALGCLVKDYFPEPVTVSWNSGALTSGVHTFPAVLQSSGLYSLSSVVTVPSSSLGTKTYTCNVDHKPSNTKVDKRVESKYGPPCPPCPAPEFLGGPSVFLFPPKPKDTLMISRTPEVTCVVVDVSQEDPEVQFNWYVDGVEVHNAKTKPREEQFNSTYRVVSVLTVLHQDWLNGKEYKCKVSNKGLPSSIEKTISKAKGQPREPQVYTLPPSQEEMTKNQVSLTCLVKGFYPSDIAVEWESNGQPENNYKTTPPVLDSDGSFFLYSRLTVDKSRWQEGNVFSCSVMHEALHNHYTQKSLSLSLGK
light: QSVLTQPPSASGTPGQRVTISCTGSTSNIGAGYDTHWYQQLPGTAPKLLIYGNSNRPSGVPDRFSGSKSGTSASLAISGLRSEDEADYYCQSYDTNLSVWVFGGGTKLTVLGQPKAAPSVTLFPPSSEELQANKATLVCLISDFYPGAVTVAWKADSSPVKAGVETTTPSKQSNNKYAASSYLSLTPEQWKSHRSYSCQVTHEGSTVEKTVAPTECS
notes: human IgG4 S228P, lambda light chain
Binder B1 has a relative binding affinity (human CD81 mutant H151R) of under 20%, a relative binding affinity (human CD81 mutant V135L) of under 20% and a relative binding affinity (human CD81 mutant V169L) of under 20%. For the same binder, the relative binding affinity (human CD81 mutant A164V) was under 20%, the relative binding affinity (human CD81 mutant S168T) was under 20% and the relative binding affinity (human CD81 mutant G158A) was under 20%. The relative binding affinity (human CD81 mutant D137E) was under 20%, the “Jurkat chemotaxis (% of control IgG4) at 0.001 µg/mL” value [1] was 90% and the “Jurkat chemotaxis (% of control IgG4) at 0.01 µg/mL” value [1] was 93%. For the same binder, the “Jurkat chemotaxis (% of control IgG4) at 0.1 µg/mL” value [1] was 21%, the “Jurkat chemotaxis (% of control IgG4) at 1 µg/mL” value [1] was -2% and the “Jurkat chemotaxis (% of control IgG4) at 10 µg/mL” value [1] was 3%. The relative binding affinity (human CD81 mutant L165A) was under 20% and the relative binding affinity (human CD81 mutant V169A) was under 20%.

B2: 002-A07 N113Q (antibody, human IgG4 S228P, lambda, V domains shown)
VH: EVQLLESGGGLVQPGGSLRLSCAASGFTFSSNYMSWVRQAPGKGLEWVSYISSSSTYTDYADSVKGRFTISRDNSKNTLYLQMNSLRAEDTAVYYCARYSYGRDNFDYWGQGTLVTVSS
VL: QSVLTQPPSASGTPGQRVTISCTGSTSNIGAGYDTHWYQQLPGTAPKLLIYGNSNRPSGVPDRFSGSKSGTSASLAISGLRSEDEADYYCQSYDTQLSVWVFGGGTKLTVLG
notes: IgG4 S228P; glycosylation site mutant of 002-A07 VL
Binder B2 has a relative binding affinity (human CD81 mutant H151R) of under 20%, a relative binding affinity (human CD81 mutant V135L) of under 20% and a relative binding affinity (human CD81 mutant V169L) of under 20%. For the same binder, the relative binding affinity (human CD81 mutant A164V) was under 20%, the relative binding affinity (human CD81 mutant S168T) was under 20% and the relative binding affinity (human CD81 mutant G158A) was under 20%. For the same binder, the relative binding affinity (human CD81 mutant D137E) was under 20%, the “Jurkat chemotaxis (% of control IgG4) at 0.001 µg/mL” value [1] was 104% and the “Jurkat chemotaxis (% of control IgG4) at 0.01 µg/mL” value [1] was 99%. The “Jurkat chemotaxis (% of control IgG4) at 0.1 µg/mL” value [1] was 37%, the “Jurkat chemotaxis (% of control IgG4) at 1 µg/mL” value [1] was 13% and the “Jurkat chemotaxis (% of control IgG4) at 10 µg/mL” value [1] was 12%. The relative binding affinity (human CD81 mutant L165A) was under 20% and the relative binding affinity (human CD81 mutant V169A) was under 20%.

B3: 002-A07 N113G (antibody, human IgG4 S228P, lambda, V domains shown)
VH: B2 VH
VL: B2 VL with Q96G
notes: as for B2
B3 gave a relative binding affinity (human CD81 mutant H151R) of under 20%, a relative binding affinity (human CD81 mutant V135L) of under 20% and a relative binding affinity (human CD81 mutant V169L) of under 20%. It also gave a relative binding affinity (human CD81 mutant A164V) of under 20%, a relative binding affinity (human CD81 mutant S168T) of under 20% and a relative binding affinity (human CD81 mutant G158A) of under 20%. For the same binder, the relative binding affinity (human CD81 mutant D137E) was under 20%, the “Jurkat chemotaxis (% of control IgG4) at 0.001 µg/mL” value [1] was 99% and the “Jurkat chemotaxis (% of control IgG4) at 0.01 µg/mL” value [1] was 101%. The “Jurkat chemotaxis (% of control IgG4) at 0.1 µg/mL” value [1] was 38%, the “Jurkat chemotaxis (% of control IgG4) at 1 µg/mL” value [1] was 13% and the “Jurkat chemotaxis (% of control IgG4) at 10 µg/mL” value [1] was 7%. It also gave a relative binding affinity (human CD81 mutant L165A) of under 20% and a relative binding affinity (human CD81 mutant V169A) of under 20%.

B4: 003-D07 (antibody, human IgG4 S228P, lambda, V domains shown)
VH: B2 VH with G102D
VL: B2 VL with P8F, Q40H, Q96N
notes: IgG4 S228P
With B4 the relative binding affinity (human CD81 mutant H151R) was under 20%, the relative binding affinity (human CD81 mutant V135L) was under 20% and the relative binding affinity (human CD81 mutant V169L) was under 20%. The relative binding affinity (human CD81 mutant A164V) was under 20%, the “Jurkat chemotaxis (% of control IgG4) at 0.001 µg/mL” value [1] was 87% and the “Jurkat chemotaxis (% of control IgG4) at 0.01 µg/mL” value [1] was 79%. The “Jurkat chemotaxis (% of control IgG4) at 0.1 µg/mL” value [1] was 42%, the “Jurkat chemotaxis (% of control IgG4) at 1 µg/mL” value [1] was -5% and the “Jurkat chemotaxis (% of control IgG4) at 10 µg/mL” value [1] was -9%. The relative binding affinity (human CD81 mutant L165A) was under 20% and the relative binding affinity (human CD81 mutant V169A) was under 20%.

B5: 002-A07 S115G (antibody, human IgG4 S228P, lambda, V domains shown)
VH: B2 VH
VL: B2 VL with Q96N, S98G
notes: as for B2
For B5, the relative binding affinity (human CD81 mutant H151R) was under 20%, the relative binding affinity (human CD81 mutant V135L) was under 20% and the relative binding affinity (human CD81 mutant V169L) was under 20%. The relative binding affinity (human CD81 mutant A164V) was under 20%, the relative binding affinity (human CD81 mutant S168T) was under 20% and the relative binding affinity (human CD81 mutant G158A) was under 20%. For the same binder, the relative binding affinity (human CD81 mutant D137E) was under 20%, the “Jurkat chemotaxis (% of control IgG4) at 0.001 µg/mL” value [1] was 84% and the “Jurkat chemotaxis (% of control IgG4) at 0.01 µg/mL” value [1] was 74%. The “Jurkat chemotaxis (% of control IgG4) at 0.1 µg/mL” value [1] was 13%, the “Jurkat chemotaxis (% of control IgG4) at 1 µg/mL” value [1] was -9% and the “Jurkat chemotaxis (% of control IgG4) at 10 µg/mL” value [1] was -3%. It also gave a relative binding affinity (human CD81 mutant L165A) of under 20% and a relative binding affinity (human CD81 mutant V169A) of under 20%.

B6: 002-A07 S115A (antibody, human IgG4 S228P, lambda, V domains shown)
VH: B2 VH
VL: B2 VL with Q96N, S98A
notes: as for B2
In the case of B6, the relative binding affinity (human CD81 mutant H151R) is reported as under 20%, the relative binding affinity (human CD81 mutant V135L) is reported as under 20% and the relative binding affinity (human CD81 mutant V169L) is reported as under 20%. For the same binder, the relative binding affinity (human CD81 mutant A164V) was under 20%, the relative binding affinity (human CD81 mutant S168T) was under 20% and the relative binding affinity (human CD81 mutant G158A) was under 20%. For the same binder, the relative binding affinity (human CD81 mutant D137E) was under 20%, the “Jurkat chemotaxis (% of control IgG4) at 0.001 µg/mL” value [1] was 82% and the “Jurkat chemotaxis (% of control IgG4) at 0.01 µg/mL” value [1] was 78%. For the same binder, the “Jurkat chemotaxis (% of control IgG4) at 0.1 µg/mL” value [1] was 32%, the “Jurkat chemotaxis (% of control IgG4) at 1 µg/mL” value [1] was -4% and the “Jurkat chemotaxis (% of control IgG4) at 10 µg/mL” value [1] was -9%. For the same binder, the relative binding affinity (human CD81 mutant L165A) was under 20% and the relative binding affinity (human CD81 mutant V169A) was under 20%.

B7: 002-A07 N113S (antibody, human IgG4 S228P, lambda, V domains shown)
VH: B2 VH
VL: B2 VL with Q96S
notes: as for B2
B7 was tested, and the relative binding affinity (human CD81 mutant H151R) was under 20%, the relative binding affinity (human CD81 mutant V135L) was under 20% and the relative binding affinity (human CD81 mutant V169L) was under 20%. For the same binder, the relative binding affinity (human CD81 mutant A164V) was under 20%, the relative binding affinity (human CD81 mutant S168T) was under 20% and the relative binding affinity (human CD81 mutant G158A) was under 20%. For the same binder, the relative binding affinity (human CD81 mutant D137E) was under 20%, the “Jurkat chemotaxis (% of control IgG4) at 0.001 µg/mL” value [1] was 99% and the “Jurkat chemotaxis (% of control IgG4) at 0.01 µg/mL” value [1] was 101%. The “Jurkat chemotaxis (% of control IgG4) at 0.1 µg/mL” value [1] was 40%, the “Jurkat chemotaxis (% of control IgG4) at 1 µg/mL” value [1] was 13% and the “Jurkat chemotaxis (% of control IgG4) at 10 µg/mL” value [1] was 12%. For the same binder, the relative binding affinity (human CD81 mutant L165A) was under 20% and the relative binding affinity (human CD81 mutant V169A) was under 20%.
